Assay [1] concerns the target Human IgE in whole blood of healthy volunteers (on basophils). Nature of the assay: cell-based or functional assay.
Assay [2] addresses Human myeloma IgE (human) (UniProt P01854). Put plainly: SPR (BIAcore 2000, 25 C): GST-EndoS (E235Q) amine-coupled to a CM5 chip, human myeloma IgE injected at 10-1.25 ug/ml; 1:1 Langmuir fit, KD from mean rate constants.

In assay [1], “GST-EndoS (enzymatically active) (from UniProt Q99Y92 37-995) (enzyme)” came in with a CD203c+ cells among CD123+, HLA-DR- basophils after chicken anti-IgE stimulation of whole blood (FACS); untreated blood 83% of 15%. Turning to “GST-EndoS (E235Q), enzymatically inactive form of EndoS from Streptococcus pyogenes (from UniProt Q99Y92 37-995) (enzyme)”, in assay [2], the Kd was determined as 133 nM.

Broadly, the Kd is the concentration at which binding is half-saturated.

These data come from US20140065128A1.
